Data as given in IntAct's records for PubMed 21785410.

B1: NAP1-binding protein (Saccharomyces cerevisiae), P52919 (parent)
chain: MLKSVQGLWKDFFGIRDDGRKREYGSLDEVRKRSALRSRRKQMRPTGKSVLKRPRKVTDRKTEEKIRTNRRKTPKRRLTKIFQTIRDVFSNDNENMSKMQNVCGDMTRILKKRSQGRPSYMDTDTAKSRILRSDAFKRKISELKYNKQRISELRSGSSDGSSGKDRNQSLYLDREILLQRQIKKRDEKIKALESKLQSLQEALNYSNEKYRILEDLLDSSNIHPSYTKSRRTMSNLARENDEIKPLKIDLSPSPIRRTNSLFTSSPMKTYNRDGNIPEMQPLQENISPACPTPPYRSRETEKEDETLSPISVDFSSYLS

Variants of: B1
Conditions: with nic96_yeast NIC96, P34077
Sequence of nic96_yeast NIC96, P34077 (P34077 whole entry): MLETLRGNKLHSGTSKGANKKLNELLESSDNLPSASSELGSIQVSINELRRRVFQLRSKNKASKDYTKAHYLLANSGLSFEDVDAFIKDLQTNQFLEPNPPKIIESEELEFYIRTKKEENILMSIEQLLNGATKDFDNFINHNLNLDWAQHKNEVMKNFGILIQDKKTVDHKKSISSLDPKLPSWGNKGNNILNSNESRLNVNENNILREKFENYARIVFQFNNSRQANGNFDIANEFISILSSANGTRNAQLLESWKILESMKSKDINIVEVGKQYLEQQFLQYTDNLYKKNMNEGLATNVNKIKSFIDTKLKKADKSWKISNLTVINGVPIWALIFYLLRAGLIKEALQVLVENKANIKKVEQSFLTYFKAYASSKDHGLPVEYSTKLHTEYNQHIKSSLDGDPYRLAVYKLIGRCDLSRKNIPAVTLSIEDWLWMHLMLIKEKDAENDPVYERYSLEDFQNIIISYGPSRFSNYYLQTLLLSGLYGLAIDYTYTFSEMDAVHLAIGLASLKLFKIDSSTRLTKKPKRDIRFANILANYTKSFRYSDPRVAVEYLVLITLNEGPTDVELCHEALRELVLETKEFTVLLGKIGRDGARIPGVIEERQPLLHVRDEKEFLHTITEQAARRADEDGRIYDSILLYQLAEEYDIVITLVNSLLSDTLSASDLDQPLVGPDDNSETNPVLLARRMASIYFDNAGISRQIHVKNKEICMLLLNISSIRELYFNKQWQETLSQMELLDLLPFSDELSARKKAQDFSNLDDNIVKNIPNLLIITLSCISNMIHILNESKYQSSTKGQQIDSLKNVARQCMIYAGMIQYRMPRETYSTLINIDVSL

Variant | effect of a mutation on the interaction
MLKSVQGLAKDFFGIRDDGRKREYGSLDEVRKRSALRSRRKQMRPTGKSVLKRPRKVTDRKTEEKIRTNRRKTPKRRLTKIFQTIRDVFSNDNENMSKMQNVCGDMTRILKKRSQGRPSYMDTDTAKSRILRSDAFKRKISELKYNKQRISELRSGSSDGSSGKDRNQSLYLDREILLQRQIKKRDEKIKALESKLQSLQEALNYSNEKYRILEDLLDSSNIHPSYTKSRRTMSNLARENDEIKPLKIDLSPSPIRRTNSLFTSSPMKTYNRDGNIPEMQPLQENISPACPTPPYRSRETEKEDETLSPISVDFSSYLS [W9A] | disrupting interaction
MLKSVQGLWKDFAGIRDDGRKREYGSLDEVRKRSALRSRRKQMRPTGKSVLKRPRKVTDRKTEEKIRTNRRKTPKRRLTKIFQTIRDVFSNDNENMSKMQNVCGDMTRILKKRSQGRPSYMDTDTAKSRILRSDAFKRKISELKYNKQRISELRSGSSDGSSGKDRNQSLYLDREILLQRQIKKRDEKIKALESKLQSLQEALNYSNEKYRILEDLLDSSNIHPSYTKSRRTMSNLARENDEIKPLKIDLSPSPIRRTNSLFTSSPMKTYNRDGNIPEMQPLQENISPACPTPPYRSRETEKEDETLSPISVDFSSYLS [F13A] | disrupting interaction
MAKSVQGLWKDFFGIRDDGRKREYGSLDEVRKRSALRSRRKQMRPTGKSVLKRPRKVTDRKTEEKIRTNRRKTPKRRLTKIFQTIRDVFSNDNENMSKMQNVCGDMTRILKKRSQGRPSYMDTDTAKSRILRSDAFKRKISELKYNKQRISELRSGSSDGSSGKDRNQSLYLDREILLQRQIKKRDEKIKALESKLQSLQEALNYSNEKYRILEDLLDSSNIHPSYTKSRRTMSNLARENDEIKPLKIDLSPSPIRRTNSLFTSSPMKTYNRDGNIPEMQPLQENISPACPTPPYRSRETEKEDETLSPISVDFSSYLS [L2A] | disrupting interaction
MLKSAQGLWKDFFGIRDDGRKREYGSLDEVRKRSALRSRRKQMRPTGKSVLKRPRKVTDRKTEEKIRTNRRKTPKRRLTKIFQTIRDVFSNDNENMSKMQNVCGDMTRILKKRSQGRPSYMDTDTAKSRILRSDAFKRKISELKYNKQRISELRSGSSDGSSGKDRNQSLYLDREILLQRQIKKRDEKIKALESKLQSLQEALNYSNEKYRILEDLLDSSNIHPSYTKSRRTMSNLARENDEIKPLKIDLSPSPIRRTNSLFTSSPMKTYNRDGNIPEMQPLQENISPACPTPPYRSRETEKEDETLSPISVDFSSYLS [V5A] | disrupting interaction
MLKSVQGLWKDAFGIRDDGRKREYGSLDEVRKRSALRSRRKQMRPTGKSVLKRPRKVTDRKTEEKIRTNRRKTPKRRLTKIFQTIRDVFSNDNENMSKMQNVCGDMTRILKKRSQGRPSYMDTDTAKSRILRSDAFKRKISELKYNKQRISELRSGSSDGSSGKDRNQSLYLDREILLQRQIKKRDEKIKALESKLQSLQEALNYSNEKYRILEDLLDSSNIHPSYTKSRRTMSNLARENDEIKPLKIDLSPSPIRRTNSLFTSSPMKTYNRDGNIPEMQPLQENISPACPTPPYRSRETEKEDETLSPISVDFSSYLS [F12A] | disrupting interaction
